Measurements: patent US20220033493A1

Experiments:
[1] = target: CaVβ2b with N-terminal deca-histidine tag (purified from E. coli); assay: isothermal titration calorimetry, purified proteins, 25 °C
[2] = target: CaVβ2b with N-terminal deca-histidine tag (purified from E. coli); assay: isothermal titration calorimetry, nb.F3 injected into CaVβ2b, T=298K
[3] = target: CaVβ2b with N-terminal deca-histidine tag (purified from E. coli); assay: isothermal titration calorimetry, purified proteins, 25 °C, nb.F3 injected into CaVβ2b

stoichiometry [1]: 1
Ka [2]: 1.07e+08 M⁻¹
N (stoichiometry) [2]: 0.93
ΔH [2]: -14.9 kcal/mol
ΔS (cal mol-1 K-1) [2]: -13.8
Kd [3]: 13.2 nM
B1: nb.F3 with N-terminal deca-histidine tag (purified from E. coli) (VHH)
VHH: QVQLQESGGGLVQAGGSLRLSCVASGRTFSSYAMGWFRQAPGKEREFVAAIDWSGGTASHADSVKGRFTISRDNAKNTVYLQMNSLKPEDTAVYYCAASSYWSRSVDEYDYWGQGTQVTVSS
